In IntAct's records for PubMed 29039417:

B1: BBSome complex member BBS4 (Homo sapiens), Q96RK4 (parent)
chain: MAEERVATRTQFPVSTESQKPRQKKAPEFPILEKQNWLIHLHYIRKDYEACKAVIKEQLQETQGLCEYAIYVQALIFRLEGNIQESLELFQTCAVLSPQSADNLKQVARSLFLLGKHKAAIEVYNEAAKLNQKDWEISHNLGVCYIYLKQFNKAQDQLHNALNLNRHDLTYIMLGKIHLLEGDLDKAIEVYKKAVEFSPENTELLTTLGLLYLQLGIYQKAFEHLGNALTYDPTNYKAILAAGSMMQTHGDFDVALTKYRVVACAVPESPPLWNNIGMCFFGKKKYVAAISCLKRANYLAPFDWKILYNLGLVHLTMQQYASAFHFLSAAINFQPKMGELYMLLAVALTNLEDIENAKRAYAEAVHLDKCNPLVNLNYAVLLYNQGEKKNALAQYQEMEKKVSLLKDNSSLEFDSEMVEMAQKLGAALQVGEALVWTKPVKDPKSKHQTTSTSKPASFQQPLGSNQALGQAMSSAAAYRTLPSGAGGTSQFTKPPSLPLEPEPAVESSPTETSEQIREK
partner: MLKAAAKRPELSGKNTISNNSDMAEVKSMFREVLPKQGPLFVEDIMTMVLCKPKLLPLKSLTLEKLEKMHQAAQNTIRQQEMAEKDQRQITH

Variants of: B1
Conditions: with bbip1_human BBIP1, A8MTZ0

Variant	effect of a mutation on the interaction
T437E	with no effect
T437A	with no effect
T437K	with no effect
L434E	with no effect
L434A	with no effect
L434K	with no effect
W436E	with no effect
W436A	with no effect
W436K	with no effect
K444A	with no effect
K444E	with no effect
K423E	with no effect
K423A	with no effect
G431K	with no effect
G431E	with no effect
G431A	with no effect
T450A	with no effect
T450E	with no effect
T450K	with no effect
A427E	with no effect
A427K	with no effect
L428A	with no effect
L428E	with no effect
L428P	disrupting interaction strength

Variant	effect of a mutation on the interaction
L428K	with no effect
P455E	with no effect
P455A	with no effect
A433E	with no effect
A433K	with no effect
Q429E	with no effect
Q429A	with no effect
Q429K	with no effect
G425K	with no effect
G425E	with no effect
G425A	with no effect
D442E	with no effect
D442A	with no effect
D442K	with no effect
K441E	with no effect
K441A	with no effect
S445E	with no effect
S445K	with no effect
S445A	with no effect
Q448E	with no effect
Q448K	with no effect
Q448A	with no effect
S453K	with no effect
S453E	with no effect

Variant	effect of a mutation on the interaction
S453A	with no effect
Q422E	with no effect
Q422K	with no effect
Q422A	with no effect
K438A	with no effect
K438E	with no effect
E432A	with no effect
E432K	with no effect
K446E	with no effect
K446A	with no effect
L424S	disrupting interaction strength
L424K	with no effect
L424E	with no effect
L424A	disrupting interaction strength
S451E	with no effect
S451A	with no effect
S451K	with no effect
P439A	with no effect
P439K	with no effect
P439E	with no effect
V430K	with no effect
V430A	with no effect
V430E	with no effect
P443E	with no effect

Variant	effect of a mutation on the interaction
P443A	with no effect
P443K	with no effect
K454E	with no effect
K454A	with no effect
T452A	with no effect
T452E	with no effect
T452K	with no effect
T449E	with no effect
T449K	with no effect
T449A	with no effect
V435E	with no effect
V435A	with no effect
V435K	with no effect
A426K	with no effect
A426E	with no effect
H447A	with no effect
H447E	with no effect
H447K	with no effect
V440E	with no effect
V440K	with no effect
V440A	with no effect
